Among the data in patent US20180072816A1 are IC50 (nM) in β-Arrestin BRET assay (Antagonist mode in the presence of 100 nM SDF-1) values, retold here.

The assay has as its target human CXCR4 (human) (UniProt P61073). Kind of assay: cell-based or functional assay.

Chain of human CXCR4 (human) (P61073 whole entry): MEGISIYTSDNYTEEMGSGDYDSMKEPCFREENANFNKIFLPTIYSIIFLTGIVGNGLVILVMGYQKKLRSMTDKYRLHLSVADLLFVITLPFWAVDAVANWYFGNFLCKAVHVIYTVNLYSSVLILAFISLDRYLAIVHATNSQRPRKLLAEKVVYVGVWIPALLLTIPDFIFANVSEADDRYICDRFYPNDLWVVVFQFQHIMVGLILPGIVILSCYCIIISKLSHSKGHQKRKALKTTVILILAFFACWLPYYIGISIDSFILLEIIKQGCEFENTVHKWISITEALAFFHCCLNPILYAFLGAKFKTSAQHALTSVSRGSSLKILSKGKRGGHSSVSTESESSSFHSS

For the substance anti-CXCR4 MAb 12G5 (antibody), the IC50 (nM) in β-Arrestin BRET assay (Antagonist mode in the presence of 100 nM SDF-1) worked out at 64 nM.
